Assay results from publication PMC6910923, “Novel halo- and thermo-tolerant Cohnella sp. A01 L-glutaminase: heterologous expression and biochemical characterization” (Scientific Reports, 2019).

Test system: NC(=O)CC[C@H](N)C(=O)O
Experiment: purified protein
Settings: MgCl2 present, 0-25 mM substrate, standard assay pH 8 phosphate, 50 °C

rSAM (L-glutaminase) (Cohnella sp.) was tested, and the Km was 1800 µM.
